Results taken from US20230151091A1 (NEW YORK UNIVERSITY, published 2023).

T1: human MuSK (human, UniProt O15146 24-495)
T1 construct: Recombinant protein coated on ELISA plates (R&D Systems cat. 10189-MK) or on the Biacore chip; also called human muscle-specific tyrosine protein kinase; full length human MuSK
T1 sequence: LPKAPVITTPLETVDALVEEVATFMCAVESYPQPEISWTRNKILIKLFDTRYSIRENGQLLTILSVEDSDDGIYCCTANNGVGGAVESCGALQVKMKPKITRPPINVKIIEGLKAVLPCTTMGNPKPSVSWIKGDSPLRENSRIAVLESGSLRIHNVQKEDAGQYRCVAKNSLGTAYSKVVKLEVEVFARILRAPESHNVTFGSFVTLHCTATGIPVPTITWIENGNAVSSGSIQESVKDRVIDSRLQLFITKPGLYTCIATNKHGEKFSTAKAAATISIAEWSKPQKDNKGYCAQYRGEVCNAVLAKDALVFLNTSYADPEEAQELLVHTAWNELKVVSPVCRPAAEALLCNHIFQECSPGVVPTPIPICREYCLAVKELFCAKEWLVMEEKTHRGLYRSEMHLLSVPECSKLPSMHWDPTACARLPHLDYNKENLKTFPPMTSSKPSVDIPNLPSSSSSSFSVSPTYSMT

T2: mouse MuSK (mouse, UniProt Q61006 22-494, limits assumed)
T2 construct: Coated on ELISA plates or on the Biacore chip; also called full length mouse MuSK; mouse MuSK (in house produced in HEK293 cells)
T2 sequence (looked up): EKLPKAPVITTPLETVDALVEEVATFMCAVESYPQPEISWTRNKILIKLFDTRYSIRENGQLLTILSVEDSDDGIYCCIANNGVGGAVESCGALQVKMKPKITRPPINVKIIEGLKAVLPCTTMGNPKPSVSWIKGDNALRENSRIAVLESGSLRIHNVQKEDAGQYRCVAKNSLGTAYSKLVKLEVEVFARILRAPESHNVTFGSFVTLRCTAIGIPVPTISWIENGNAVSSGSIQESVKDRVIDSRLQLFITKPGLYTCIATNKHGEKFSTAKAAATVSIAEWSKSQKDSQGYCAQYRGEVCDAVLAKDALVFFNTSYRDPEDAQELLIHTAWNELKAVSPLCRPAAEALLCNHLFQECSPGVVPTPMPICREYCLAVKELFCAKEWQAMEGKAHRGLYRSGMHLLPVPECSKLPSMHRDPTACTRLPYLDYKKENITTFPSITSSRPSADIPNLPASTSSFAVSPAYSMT

T3: mFz: Fz domain and C-terminal flanking sequence of mouse MuSK (D307 to T494) with C-terminal Avi- and … (mouse, UniProt Q61006 307-494, limits assumed, biotinylated in vitro using the BirA enzyme)
T3 construct: also called mouse Fz; not shown: Avi- and His6-tags
T3 sequence (looked up): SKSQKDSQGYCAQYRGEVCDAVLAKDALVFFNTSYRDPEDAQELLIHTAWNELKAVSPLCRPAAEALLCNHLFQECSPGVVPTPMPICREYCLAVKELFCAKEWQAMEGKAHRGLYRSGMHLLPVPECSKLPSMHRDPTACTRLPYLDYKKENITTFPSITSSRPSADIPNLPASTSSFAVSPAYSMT

T4: hFz: Fz domain and C-terminal flanking sequence of human MuSK (K314-T495) with C-terminal Avi- and His6-tags (human, UniProt O15146 314-495, biotinylated in vitro using the BirA enzyme)
T4 construct: also called human Fz; not shown: Avi- and His6-tags
T4 sequence: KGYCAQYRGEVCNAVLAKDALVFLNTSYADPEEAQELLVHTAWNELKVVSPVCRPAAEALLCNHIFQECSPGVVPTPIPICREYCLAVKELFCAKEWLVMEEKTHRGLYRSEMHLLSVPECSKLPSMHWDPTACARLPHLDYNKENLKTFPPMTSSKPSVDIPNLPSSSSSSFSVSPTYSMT

T5: mECD: full-length extracellular region of mouse MuSK (E22 to T494) with C-terminal Avi- and His6-tags (mouse, UniProt Q61006 22-494, biotinylated in vitro using the BirA enzyme)
T5 construct: range 22-494; also called mouse ECD; not shown: Avi- and His6-tags
T5 sequence (looked up): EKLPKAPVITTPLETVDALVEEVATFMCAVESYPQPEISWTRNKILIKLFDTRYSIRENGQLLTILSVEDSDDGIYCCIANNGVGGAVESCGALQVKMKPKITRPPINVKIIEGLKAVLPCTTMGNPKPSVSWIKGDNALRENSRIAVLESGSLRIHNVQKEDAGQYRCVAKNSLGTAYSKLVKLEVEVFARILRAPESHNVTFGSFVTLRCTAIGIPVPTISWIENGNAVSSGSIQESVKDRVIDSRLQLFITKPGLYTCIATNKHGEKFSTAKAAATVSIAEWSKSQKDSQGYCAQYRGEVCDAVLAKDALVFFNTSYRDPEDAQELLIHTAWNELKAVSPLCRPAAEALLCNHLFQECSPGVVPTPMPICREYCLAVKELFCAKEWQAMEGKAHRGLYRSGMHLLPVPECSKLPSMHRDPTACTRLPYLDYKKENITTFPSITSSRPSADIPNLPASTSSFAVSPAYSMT

B1: X2 Fab (Fab, V domains shown)
VH: EVQLVESGGGLVQPGGSLRLSCAASGFTVSSSSIHWVRQAPGKGLEWVASISSSYGSTSYADSVKGRFTISADTSKNTAYLQMNSLRAEDTAVYYCARSEGDRYVSGYMGMDYWGQGTLVTVSS
VL: DIQMTQSPSSLSASVGDRVTITCRASQSVSSAVAWYQQKPGKAPKLLIYSASSLYSGVPSRFSGSRSGTDFTLTISSLQPEDFATYYCQQSGVWLITFGQGTKVEIK
notes: Fab format
B2: X3 Fab (Fab, V domains shown)
VH: EVQLVESGGGLVQPGGSLRLSCAASGFTISSSSIHWVRQAPGKGLEWVASISSSSGYTYYADSVKGRFTISADTSKNTAYLQMNSLRAEDTAVYYCARSWYEMWMSGYFGFDYWGQGTLVTVSS
VL: DIQMTQSPSSLSASVGDRVTITCRASQSVSSAVAWYQQKPGKAPKLLIYSASSLYSGVPSRFSGSRSGTDFTLTISSLQPEDFATYYCQQSSSSLITFGQGTKVEIK
notes: Fab format

Assays:
human MuSK [1] = target: T1, human MuSK; assay: Biacore T200, off rate at pH 5.5 against pH 7.4
Method in brief: (§1)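 Surface plasmon resonance was run with both human and mouse MuSK immobilized on the sensor chip. Fab association was always performed at pH 7.4 before the dissociation phase. Kinetic parameters were calculated from the binding curves.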

mouse MuSK [2] = target: T2, mouse MuSK; assay: Biacore T200, off rate at pH 5.5 against pH 7.4
Method in brief: as §1

[3] = target: T3, mFz: Fz domain and C-terminal flanking …; assay: bead-binding assay, Fab format: biotinylated antigen on streptavidin beads, flow cytometry, 1:1 fit; average ± s.d., n=3
[4] = target: T4, hFz: Fz domain and C-terminal flanking …; assay: as above
[5] = target: T5, mECD: full-length extracellular region …; assay: as above
human MuSK [6] = target: T1, human MuSK; assay: Biacore T200, MuSK on chip (200RU), 22.2 nM Fab, dissociation pH 7.4
Method in brief: as §1

mouse MuSK [7] = target: T2, mouse MuSK; assay: as above
Method in brief: as §1

Row | Binder | Ratio pH 5.5/7.4 of off rate (human MuSK [1]) | Ratio pH 5.5/7.4 of off rate (mouse MuSK [2]) | Kd [3] | Kd [4] | Kd [5] | koff (human MuSK [6]) | koff (mouse MuSK [7])
1 | B1 | 0.6 | 1 | 0.45 nM | 0.53 nM | 0.7 nM | 0.00057 s⁻¹ | 0.00053 s⁻¹
2 | B2 | 3.5 | 4.4 | 0.29 nM | 0.11 nM | 0.4 nM | 0.00063 s⁻¹ | 0.00558 s⁻¹
